Laboratory results published in patent US10428127B2, “Cyclic, amyloid beta-binding peptides and the use thereof” (FORSCHUNGSZENTRUM JUELICH GMBH, priority 2013, dated 2019).
Entries after “also recorded” stand apart in the source; their conditions may differ. Non-standard residues stand in square brackets, D forms with d. No end group written: not given here.

What was measured:
amyloid beta fibrils = molecular target: T1, amyloid beta fibrils (Homo sapiens, UniProt P05067); assay: SPR binding kinetics, single-cycle, heterogeneous binding model (FIG. 4); details: 25° C., high-affinity site
T1 construct: 1 mg lyophilized Aß1-42 and N-terminal biotinylated Aß1-42; biotin (only on part of the peptide molecules)
Method: (§1) 1 mg lyophilized Aß1-42 and N-terminal biotinylated Aß1-42 were each dissolved in 1 ml 100% hexafluoroisopropanol (HFIP) and dissolved overnight at room temperature. For the oligomer and fibril preparation, non-biotinylated Aß was used with N-terminal biotinylated Aß at a ratio of 1:10 and the HFIP was evaporated (Concentrator 5301 from Eppendorf). The resultant Aß film, at a final concentration of 80 μM, was placed in sodium phosphate buffer (10 mM, pH 7.4) and incubated (RT, 600 rpm). The incubation time was 3 h for the oligomer preparation, and 24 h for the fibril preparation. 100% N-terminal biotinylated Aß1-42 without incubation was used for the preparation of monomers.
(§2) The density gradient centrifugation was carried out subsequent to the Aß preparation to purify the respective Aß species according to the size of the same. An iodixanol gradient in 10 mM sodium phosphate buffer, pH 7.4 with rising concentrations from 50% to 5% v/v iodixanol was used for this purpose. 100 μl of the Aß sample was applied and separated by way of ultracentrifugation (3 h, 4° C., 259000 g). […]
(§3) Binding kinetics were likewise measured by way of SPR spectroscopy using a T200 device from Biacore (GE Healthcare). […] The binding curves were evaluated by way of kinetic fit models (heterogeneous binding model) using the Biacore T200 evaluation software (version 2.0). […]

amyloid beta oligomers = molecular target: T2, amyloid beta oligomers (Homo sapiens, UniProt P05067); assay: SPR binding kinetics, single-cycle, heterogeneous binding model (FIG. 3)
T2 construct: 1 mg lyophilized Aß1-42 and N-terminal biotinylated Aß1-42; biotin (only on part of the peptide molecules)
Method: as §1
The density gradient centrifugation was carried out subsequent to the Aß preparation to purify the respective Aß species according to the size of the same. An iodixanol gradient in 10 mM sodium phosphate buffer, pH 7.4 with rising concentrations from 50% to 5% v/v iodixanol was used for this purpose. 100 μl of the Aß sample was applied and separated by way of ultracentrifugation (3 h, 4° C., 259000 g). Subsequently, the gradient was fractionated into 14 fractions, 140 μl each. Monomeric Aß are present in the first two top fractions, Aß oligomers in fractions 4 to 6, and Aß fibrils in fractions 11 to 13.
A T200 from Biacore (GE Healthcare) was used for SPR spectroscopy. The Aß species purified by way of density gradient centrifugation were directly immobilized on a sensor chip (Series S Sensor Chips SA) according to the manufacturer's instructions by way of biotin-streptavidin coupling. 1×PBS was used as the running buffer. Loading took place at 25° C. and a flow rate of 5 μl/min. Subsequently, the flow cells were freed from non-specifically bound ligand overnight at a steady flow of 30 μl/min.
Binding kinetics were likewise measured by way of SPR spectroscopy using a T200 device from Biacore (GE Healthcare). The standard conditions are 25° C. and a flow rate of 30 μl/min. Different lyophilizates of the D peptides were placed in the 1×PBS running buffer and serially diluted. The method used was a “single-cycle” kinetics method, wherein five increasing analyte concentrations were pumped over the immobilized flow cells. The contact times selected, depending on the analyte, were 90 to 120 s for association and dissociation and 1800 to 5400 s for the final dissociation. The sensorgrams were double referenced with the aid of an unloaded flow cell and the running buffer that was used. The binding curves were evaluated by way of kinetic fit models (heterogeneous binding model) using the Biacore T200 evaluation software (version 2.0).
FIGS. 2 to 4 show the results on the binding behavior of the cyclized peptides according to the invention (affinity study). The figures show data for the kinetic evaluation of the binding strength of the various candidates to amyloid beta monomers (FIG. 2), amyloid beta oligomers (FIG. 3), and amyloid beta fibrils (FIG. 4). The two binding constants that result when fitting a heterogeneous binding model are shown in each case, plotted as white bars and black bars. It is important to remember that a logarithmic scale is shown here, which means that minor differences in the bar size represent major differences in the dissociation constant KD. White bars are the respective low-affinity sites and the binding strengths thereof, and black bars show the high-affinity binding sites and the binding strengths thereof. […]

APPsDI mice = assay: Morris water maze (MWW) test, spatial memory (FIG. 5); type: in vivo; details: five consecutive days, compared to saline
Method: The test measures the spatial memory of animals, which here were genetically engineered APPsDI mice.
The time is measured in seconds that an animal requires to locate a platform hidden closely beneath the water surface in a water tank. This is measured in several experiments per day on several consecutive days. […] The search time is plotted in seconds on five consecutive days for mice that were treated with the peptide according to the invention cD3R (SEQ ID NO. 5), compared to placebo experiments (saline).

amyloid beta monomers = molecular target: T3, amyloid beta monomers (Homo sapiens, UniProt P05067); assay: SPR binding kinetics, single-cycle, heterogeneous binding model (FIG. 2); details: 25° C., high-affinity site
T3 construct: 100% N-terminal biotinylated Aß1-42 without incubation
Method: as §1, §2, §3

transgenic AD mice = details: oral administration with drinking water; cited from earlier work
A beta monomer = molecular target: T4, A beta monomer (Homo sapiens, UniProt P05067); assay: Density gradient centrifugation fractions treated with peptide, A beta size distribution (FIG. 1); type: biochemical; details: fractions 1 to 2 of density gradient
T4 construct: approximately 20 nM or 1.8 ng Aß 1-42
Method: (§4) Thereafter, the resultant fractions are treated with and without an active ingredient and determined by way of RP-HPLC, for example. In this way, it is possible to determine the effectiveness of the active ingredient.
(§5) A further method is described hereafter. The so-called QIAD (quantitative determination of interference with Aß aggregate size distribution) test can be used for the quantitative analysis of active ingredients. The method for quantitatively analyzing the influence of an active ingredient on the particle size distribution of amyloid peptides and/or proteins in a sample comprises the following steps. […] This change is established quantitatively. […] Finally, the concentration of A beta in the respective fraction is determined by completely denaturing the A beta species during a reverse phase (RP-)HPLC carried out subsequent to the fractionating. […] Eluting A beta is detected by way of UV absorption at 215 nm. […] Depending on the fraction, the mean value from multiple, for example six, experiments conducted independently of one another can be calculated with the resulting standard deviation. The advantage of HPLC analysis is that detection is very sensitive (such as approximately 20 nM or 1.8 ng Aß 1-42) and quantification is reliable independently of the state of aggregation and the solvent. […]

A beta oligomers = molecular target: T5, A beta oligomers (Homo sapiens, UniProt P05067); assay: as above; type: biochemical; details: fractions 4 to 8 (or 4 to 10) of density gradient; peptide 20 μM; versus control and linear D3
T5 construct: approximately 20 nM or 1.8 ng Aß 1-42
Method: as §4, §5

T2 sequence (P05067 672-713): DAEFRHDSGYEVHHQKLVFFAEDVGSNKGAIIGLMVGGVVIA
T5 sequence (P05067 672-713): as above
T1 sequence (P05067 672-713): as above
T4 sequence (P05067 672-713): as above
T3 sequence (P05067 672-713): as above

rkrtrlhthrnr (cyclo([dR][dK][dR][dT][dR][dL][dH][dT][dH][dR][dN][dR])) [cD3P2K]
KD (kinetics), binding strength to amyloid beta fibrils (amyloid beta fibrils): sub-pM binding range

rprtrlhthrnrr (cyclo([dR][dP][dR][dT][dR][dL][dH][dT][dH][dR][dN][dR][dR])) [cD3r]
KD (kinetics), binding strength to amyloid beta oligomers (amyloid beta oligomers; SPR, 25° C., high-affinity site, compared with other cyclized peptides): binds even more strongly by two orders of magnitude than the other cyclized peptides | learning (search time to locate hidden platform) (APPsDI mice): significant | KD (kinetics), binding strength to amyloid beta fibrils (amyloid beta fibrils): does very well | KD (kinetics), binding affinity to amyloid beta monomers (amyloid beta monomers): particularly high affinity

rprtrlhthrnr ([dR][dP][dR][dT][dR][dL][dH][dT][dH][dR][dN][dR]) [D3, D-enantiomeric linear peptide known from WO 02/081505 A2]
binding sites bound on amyloid beta oligomer (amyloid beta oligomers; fit of SPR binding data): binds only a low-affinity site, but not a high-affinity site | cognitive abilities of treated mice (transgenic AD mice): significantly improved cognitive abilities | plaque in treated mice (transgenic AD mice): considerably less plaque

rprtrlhthrnr (cyclo([dR][dP][dR][dT][dR][dL][dH][dT][dH][dR][dN][dR]); SMILES CC(C)C[C@H]1NC(=O)[C@@H](CCCNC(=N)N)NC(=O)[C@@H]([C@H](C)O)NC(=O)[C@@H](CCCNC(=N)N)NC(=O)[C@H]2CCCN2C(=O)[C@@H](CCCNC(=N)N)NC(=O)[C@@H](CCCNC(=N)N)NC(=O)[C@@H](CC(N)=O)NC(=O)[C@@H](CCCNC(=N)N)NC(=O)[C@@H](Cc2c[nH]cn2)NC(=O)[C@@H]([C@H](C)O)NC(=O)[C@@H](Cc2c[nH]cn2)NC1=O) [cD3, cyclized D3, N-terminal amino group and C-terminal carboxyl group coupled by an amide bond]
number of low-affinity sites relative to high-affinity sites (amyloid beta oligomers; from Rmax 79/21%): approximately 4 times | Rmax, contribution of high-affinity site (KD2) to RU total loading (amyloid beta oligomers; high-affinity site (KD2)): 21% | Rmax, contribution of low-affinity site to RU total loading (amyloid beta oligomers; low-affinity site (white bar)): 79% | influence on the A beta monomer concentration (A beta monomer): no influence | elimination / decrease of A beta oligomer concentration (A beta oligomers): eliminates the oligomers in fractions 4 to 8 even more efficiently than linear D3; also recorded: clear decrease in the A beta oligomer concentration
